This data set can be described thus: soluble on expression in E. coli; label from the status in PepcDB or PDB records.
In the case of “MRSMTDVRRYWISLLRKICEMPLELCASDRLKKSMPVEGKKSEERRKFTHLELLGRIFCGISPFLELNRESPSTDPEERKIATRLSEFAVKSLDVATNPNCKDYMNFKEGRQPLVDAAFLVEAILRAPKVLWEDLDVSTKKRLIRELKATRKIEPYFSNWLLFSAMIETFFFFAGEEWDSTKVDLILKNVESWYKGDGAYGDGPFFRWDYYNSFVIYPMTIDVLRIISEEKTEWKELYVKVLRRAQRYAVVLERMISPEGTFPIIGRSITYRTAVFHLLSQLSLLHLLPASLSPAQVRCALTAVLRRIFENPSTFDENGWLKIGVIGSQPSLGEEYITTGSLYLCTTVFLPLGLPTSDPFWRDPCKKWTNKKVWEGEDVAPDRALEDLEHHHHHH”, the “soluble on expression in E. coli” value was “soluble”.

On to “MRTLGLDLGTKTLGVAVSDELGLTAQGLETIAIDTERGDYGLKRLRAIIDEYGVDTIVVGWPKNMNGTLGPRAEASERFAAKLREEFSLPVVLRDERLSTMAAERMLIAADVSRKKRRKVIDKMAAAVILQSYLDSKR”, for which the “soluble on expression in E. coli” value is “not soluble”.

On to “MRTNSEIISLIQSKVEERKMSMSELARNVGIAKSTMSRYFNKTREFPLNRADDFAKALNISTEFLLGIDLNSEVDGSELLGIYRELEEQRRVIVLDTAKEQLEEQTKIINFSDKKTDIEDIFEVKGTTFAAAASGFGRGFEADDYDTYTVYTDEEPPHYDYAIGIRGDSMLPKYEQGDMLYIVDKGMSTYSGQLCIVVHNGNTYFKKVYTEHDGLRLVSLNKKYSDIFIGYPPAEDTYIKIYDVVGSFTPIEF”, for which the “soluble on expression in E. coli” value is “not soluble”.

With “MRTSIATVCLSGTLAEKLRAAADAGFDGVEIFEQDLVVSPHSAEQIRQRAQDLGLTLDLFQPFRDFEGVEEEQFLKNLHRLEEKFKLMNRLGIEMILLCSNVGTATINDDDLFVEQLHRAADLAEKYNVKIAYEALAWGKFVNDFEHAHALVEKVNHKALGTCLDTFHILSRGWETDEVENIPAEKIFFVQLADAPKLSMDILSWSRHHRVFPGEGDFDLVKFMVHLAKTGYDGPISLEIFNDSFRKAEVGRTAIDGLRSLRWLEDQTWHALNAEDRPSALELR”, the “soluble on expression in E. coli” value is reported as “not soluble”.

For “MRVALFITCLADHFYPKAGVAPVRLLRALGVKVDFPKGQTCCGQPAFNAGYWDEARPLAKRTLEVFEEAEYVVLPSGSCTSMVKNHYPELLPGNREALAMAEKTYELSQFLVRVLGVEKLGEGLKGRRVAYHHGCHALRELGVREEPLLLLQNAGAEVLPWEAWEECCGFGGLFSVKLPEVSLAMADRKLATLPKAEVLTSTDAGCLLHLAGRLGKKGENLRVAPLATLLWEAYAG”, the “soluble on expression in E. coli” value is “soluble”.

Regarding “MRVHVPAQDAREAVRQAAATTGDADVLSETDRRLLATAHELDGTLVSDDYAMQNVAAELAVTVESISQDGITERRDWRLQCQGCGREFDDTDHDRCPVCGSPLERKNPSLEHHHHHH”, the “soluble on expression in E. coli” value is recorded as “not soluble”.

As to “MRVLVLCTHNSARSQMAEAWLKHFARELGVDLEVHSAGTEKAFVKEEAKRVMAEVGLDLSGHFSKTLLEVPDPWDFGLVLTVCDQAKEACPAYPARTERRHVSFPDPTGKPLEEWRKVRDALGRMARFLVEALKEGRLPSDEELRQAARL”, the “soluble on expression in E. coli” value is recorded as “soluble”.

With “MRVQPVTNCEKAVILEALKIGKRFDFRSLEEFRDVKLVVGAEVGTAICTIGNTKVMAAVSAEIAEPSSMRPHKGVINIDVDLSPMANYANEHDRLGSKGMELIRLLELIIRDSRCIDVEALCIRAGKEIWKIRVDVRILDEDGSLLDCACLAAITALQHFRRPNVTLEPHHTLIYSEYEKAPVPLNIYHMPICTTIGLLDKGQIVVIDPTDKETACLDGSIVVACNKRREVCALHQSTNLILSTKQIERCVKLAMARAEALTAVVSDVIKQDQIERSAFKRPDGFAITTPSLILTAGTTASRQIRAPVIKTEPESFTQRSLYQPSVILNENPLSVGSVKQEDVDEETLLAEQLTTIQNSVGQVEVTEKQTVAVSSRKREVEEVNDLLDGLDDDDEEEEVQTMTLGSETVLNDVPMEEAPDAEDSLVNAKKKKKK”, the “soluble on expression in E. coli” value was “not soluble”.

With “MRVVLAPMEGVLDYRMRDLLTQVGSYDLCVTEFIRVVDQVLPDRVFHRYCPELIDADVYGSCTKAGTPVRVQLLGQYPEYMAENAAKVIELGSSGIDLNFGCPSKTVNKSRGGSILLKDPENLYQIIKAVKEAVPSDTIVSAKIRLGYEDKTLAIENGQAVEAAGANELTIHARTKLEGYKPPAHWHWIAKVKNAINIPVIANGEIWNLEDAIKCREISGCTDLMVGRGALTIPNLGQVIKQESDNMPWLEVRAILSAYTEFETHGDKSKYYCNRIKQWLKYLKSHYKEADVLFDEIRRLKTAEGIRAAL”, the “soluble on expression in E. coli” value is given as “not soluble”.

On to “MRWEELSEQPCSLARVLAILGDRWTLLVLRDCFLGVRRFDDFERSLGVTRHVLADRLKRLVEAEILAKVPYQERPLREEYRLTEKGMELYPAILSLVNWGDRHLAGVEGPPLEHVHKHCGQHMHGVLVCSECGEPLHARDVTVREGLFWKGRLLRRG”, for which the “soluble on expression in E. coli” value is reported as “not soluble”.

On to “MRWNRMNPFGSYKKVVSARSTLKEVLKKAQDGGIVSTAFIYGLENNLLDGVIVADNAGEFKAVPKVATTPEEVLEAAGTKYTVCPNISVLKSAVREYGCEKIGVVGTPCQVRAVRKLMKYPVGFRHVPDKIALIIGIFCMENFPYYGLKLIVEEHCGVKMEDVVKMDIGKGKFWVYTRWGETKAIKLKETHPYEQIACHVCTDYTAELADISTGSVGSPDGWSTVFIRTAKGEEIFNKMVEDGYLEVKPIEEVKPGLGLVEKLALQKKEKNMKEIEHRKELGLPIPYLEHHHHHH”, for which the “soluble on expression in E. coli” value is reported as “soluble”.

Turning to “MRWVKAGELPMEAAYGATVSLPDRLIFIGGSNSSDRFSSVLSFSFDCMKDSGLICETLPPLPHAVDNMSATLLGDTLYVLGGNRNGIPSSSMFSLCLDNYSAGWTEVPFPGRPRVQPVCSSLLGKLYVFGGFTSGGDASVSTDGLCYHPESGQWQVVKAPLTTKGEPLTLTGGASVSYGDVLLICAGGVNRDIFEDAISARYQMVRESEYLLQPIEWYRFNDQLLAYNVRSGEWIRIGVPSPMLARAGSSLVVFGDILFYIGGELKPGVLEHHHHHH”, the “soluble on expression in E. coli” value is “not soluble”.

On to “MRYAEVLIPLALEGSFHYRLAEGLAEKAIVGMRCVVPFGAKRYYTGIIIGLSDKRPNLQISFKEVLFLPDDKPSVTASQLSLWQWLSAYYICTQGEVLRAALPAALLPESHTVIHYNTDFEADSRLSRDEEELLDILESAKGRTYTLDALQKAVGKRAIRAFTSLVERGAIRLEEEVKSRYKPKSEVFVRLAEPFRTEKTFASLLDSLHRAPKQSALLLHWAELITEHSLPYSSPMPQRLLAESDPHATVTLSALKKKGIFLSESVTHSVMYSAGGGEYRLWEQPQEEEKAIQSEESSTDSAVSASLPQKPLSLLYTHDFRRKEKQLLEWTEEVVRSGGQVLYLSPEANKRGGSDTLSTRMAERLGSCLLSYHAFESDAKRVEVWNRLATTEYPCVVLGVRSALFLPFRRLRLIIVDEEQEYLYKQQDPAPRFHTRQVAARLGRIHDCPVVLASATPSAEVLHQVRHKACELITWPDDRVRPRFDLEVIDMGKMRRQRQVGAGELLSFPLVSAIEETIRQKKMAVVLQNRRGFAPYIICSSCGEKLRCIHCDVSLTYHKHSCMLVCHYCGYSRPLPRICPSCKRASGVGEPSSLQPVGYGAERIEEELKRRFPTVSILRMDSDMAMSRTKMDEALARLEAKEVDILVGTQLIKGQVYNEHVGLVAVTQLDSILGFPDFRAYERAYQLLYQLMLRSGASRLYIQTNNPANSFPDLLREGDYKAFIGKQLEERQMLFFPPFSRLIRIEFRAGEESLVERIASDYAASLAAHLPEQSLSPVLVPPISRLRNAFIRELLLRLPLSSSVSATRNILDTIRTTLQTRTQEYKRVRILFDVDPL”, for which the “soluble on expression in E. coli” value is recorded as “not soluble”.

For “MRYIRLCIISLLATLPLAVHASPQPLEQIKLSESQLSGRVGMIEMDLASGRTLTAWRADERFPMMSTFKVVLCGAVLARVDAGDEQLERKIHYRQQDLVDYSPVSEKHLADGMTVGELCAAAITMSDNSAANLLLATVGGPAGLTAFLRQIGDNVTRLDRWETELNEALPGDARDTTTPASMAATLRKLLTSQRLSARSQRQLLQWMVDDRVAGPLIRSVLPAGWFIADKTGAGERGARGIVALLGPNNKAERIVVIYLRDTPASMAERNQQIAGIGAALIEHWQR”, the “soluble on expression in E. coli” value was “soluble”.

Regarding “MRYPIMNNFFKIHDNLLRNLSPSLRRGLMDEIDWNDRLIGIKGARGMGKTTFLLDYARENFGIGNRKCLYINLNQLYFTTESLVNFAGEFVKQGGEVLLLDQVFKYPNWSIELRQCMELYPDLRIVFTGSTVMRLKEENPELNGLVTSYVLNGFSFREFLNLKTGLSLQPYSFDEIVSNHEQIAPRILEQVNPLDWFQDYLHHGYYPIFLEDKNYSESLLKTLNMTLEVDVLFIRQIEQRFLHKLRKLLYLLGQRAPGSLNISSIAKEVDTSRTTITNYLKYLSEARLIKELHREEETGAKKPAMIYLDNTNVGYVIQPEPLNYIDVLKTFFLNQVKSRNEVCLGSRSQIAFCVNRQYQFCIDEKMSRRYRPDRYYAIQNMRSGTRNMIPLWLFGFLY”, the “soluble on expression in E. coli” value was “not soluble”.

For “MSAATATRSQLALQSYLDALLQEATFEDLEPLVETPPAPAPAPLKPVALAVAEVATPAPALETLPVDHGFDEFEAAVLEEQVRDARLVPPAPAALLDEPTTLRELPVEPRPHEVIELRVPSAPASVGEPPLLDLPLLDDGRPAWAAEPFECLLFD”, the “soluble on expression in E. coli” value was “soluble”.

“MSAEAADREAVSGSRPCTPPQTSWFEFLLNPSLLEQHLHSPHPDPSPVQLIFQFLEQASKPSVNEQNQVQPPVDNRRNRTLKLMALKVAAHLRWDLNMLEKGLTIPVLNMLLNELLCVSHVPPGVKHVDLDLSSLPPTTAMAVVFYNRWAIRTIVLSSFPEKQTKPGPHQLNMMNMLQQEKEHTENILSVLREQATDSIMVLEGALSIKKDFYIHL”: the “soluble on expression in E. coli” value is on record as “not soluble”.

Turning to “MSAEMTVEGMISVFMKIRKVYADEFGRMLGNETYSPNEISILLFLANNPSIDTNSQLCTCLGVSKALVCRSVDALLGKEMIISVADDHDKRVQHLKLTEHALPVIEQLGGIKRKIDQEILEGIPEEDIANMANTMEKIFARFEERAKGKESSL”, the “soluble on expression in E. coli” value was “not soluble”.

For the sequence “MSAEQDKEPIALKRVRGGDSGLDGLGGPNIQLGSPDKKKRKANTQGSSFPPLSEYAPPPNPNSDHLVAANPFDDSYNTISYKPLPSSNPYLGPGYPGFGGYSTFRMPPHVPPRMSSPYCGPYSLRNQPHPFPQNPLGMGFNRPHAFNFGPHDNSNFGNPPYNNVLTQDINMPGQHFRQGSAENFSQIPPQNVGQVSNPDLASNFAPGNNSNFTSPLETNHSFIPPPNAFGQAKAPLPKQDFTQGATKTPNQNSSTHPPHLNMEDPVNQSNVELKNVNRNNVVQENSRSGSAEATNNHANGTQNKPRQPRGAADLCTPDKSRKFSLLPSRHGHSSSDPVYPCGICTNEVNDDQDAILCEASCQKWFHRICTGMTETAYGLLTAEASAVWGCDTCMADKDVQLMRTREAFGPPAVGGDA”, the “soluble on expression in E. coli” value is given as “soluble”.

“MSAFASSDRAEKSGIALEAQQKIYEKYDKNLAGEILQWVQNVTGQSFDTQGDADNLVKVFQDGSLLCTLANSLKPGSVKKVNTSAMAFKKMENISFFLKFAEEYVQKSELFQTVDLYEGQDPNAVLICLASLARKSEKNFGRSGLGPKEAQGDRREWTDEQLKAGHNVIGLQMGSNKGATASGLNMGNTRHM”: the “soluble on expression in E. coli” value is given as “not soluble”.

In the case of “MSAFTPASEVLLRHSDDFEQSRILFAGDLQDDLPARLDTAASRAHTQQFQHWQVLSRQMGDNARFSLVATADDVADCDTLIYYWPKNKPEAQFQLMNLLSLLPVGTDIFVVGENRSGVRSAEQMLADYAPLNKVDSARRCGLYFGRLEKQPVFDADKFWGEYSVDGLTVKTLPGVFSRDGLDVGSQLLLSTLTPHTKGKVLDVGCGAGVLSVAFARHSPKIRLTLCDVSAPAVEASRATLAANGVEGEVFASNVFSEVKGRFDMIISNPPFHDGMQTSLDAAQTLIRGAVRHLNSGGELRIVANAFLPYPDVLDETFGFHEVIAQTGRFKVYRAIMTRQAKKG”, the “soluble on expression in E. coli” value is “not soluble”.

The values are drawn from the DeepSol protein solubility set.
